Data: patent US20170362301A1 (Janssen / Centocor, published 2017)
Positions count from the first letter of the chain named. Numbers in names are those of the source.

B1: P54AR4-83v2 A3C, NEM conjugate (designed binder)
chain: LPCPKNLVVSEVTEDSARLSWDDPWAFYESFLIQYQESEKVGEAIVLTVPGSERSYDLTGLKPGTEYTVSIYGVHNVYKDTNMRGLPLSAIFTT
modifications: NEM on Cys 3
notes: His-tagged
B2: P54AR4-83v2 F31C, NEM conjugate (designed binder)
chain: B1 chain with C3A, F31C
modifications: NEM on Cys 31
notes: His-tagged
B3: P54AR4-83v2 G42C, NEM conjugate (designed binder)
chain: B1 chain with C3A, G42C
modifications: NEM on Cys 42
notes: His-tagged
B4: P54AR4-83v2 K5C, NEM conjugate (designed binder)
chain: B1 chain with C3A, K5C
modifications: NEM on Cys 5
notes: His-tagged
B5: P54AR4-83v2 E14C, NEM conjugate (designed binder)
chain: B1 chain with C3A, E14C
modifications: NEM on Cys 14
notes: His-tagged
B6: P54AR4-83v2 F27C, NEM conjugate (designed binder)
chain: B1 chain with C3A, F27C
modifications: NEM on Cys 27
notes: His-tagged
B7: P54AR4-83v2 K62C, NEM conjugate (designed binder)
chain: B1 chain with C3A, K62C
modifications: NEM on Cys 62
notes: His-tagged
B8: P54AR4-83v2 G85C, NEM conjugate (designed binder)
chain: B1 chain with C3A, G85C
modifications: NEM on Cys 85
notes: His-tagged
B9: P54AR4-83v2 D15C, NEM conjugate (designed binder)
chain: B1 chain with C3A, D15C
modifications: NEM on Cys 15
notes: His-tagged
B10: P54AR4-83v2 E43C, NEM conjugate (designed binder)
chain: B1 chain with C3A, E43C
modifications: NEM on Cys 43
notes: His-tagged
B11: P54AR4-83v2 K79C, NEM conjugate (designed binder)
chain: B1 chain with C3A, K79C
modifications: NEM on Cys 79
notes: His-tagged
B12: P54AR4-83v2 G64C, NEM conjugate (designed binder)
chain: B1 chain with C3A, G64C
modifications: NEM on Cys 64
notes: His-tagged
B13: P54AR4-83v2 D80C, NEM conjugate (designed binder)
chain: B1 chain with C3A, D80C
modifications: NEM on Cys 80
notes: His-tagged
B14: P54AR4-83v2 E29C, NEM conjugate (designed binder)
chain: B1 chain with C3A, E29C
modifications: NEM on Cys 29
notes: His-tagged
B15: P54AR4-83v2 I45C, NEM conjugate (designed binder)
chain: B1 chain with C3A, I45C
modifications: NEM on Cys 45
notes: His-tagged
B16: P54AR4-83v2 D22C, NEM conjugate (designed binder)
chain: B1 chain with C3A, D22C
modifications: NEM on Cys 22
notes: His-tagged
B17: P54AR4-83v2 L7C, NEM conjugate (designed binder)
chain: B1 chain with C3A, L7C
modifications: NEM on Cys 7
notes: His-tagged
B18: P54AR4-83v2 G60C, NEM conjugate (designed binder)
chain: B1 chain with C3A, G60C
modifications: NEM on Cys 60
notes: His-tagged
B19: P54AR4-83v2 A26C, NEM conjugate (designed binder)
chain: B1 chain with C3A, A26C
modifications: NEM on Cys 26
notes: His-tagged
B20: P54AR4-83v2 D23C, NEM conjugate (designed binder)
chain: B1 chain with C3A, D23C
modifications: NEM on Cys 23
notes: His-tagged
B21: P54AR4-83v2 K40C, NEM conjugate (designed binder)
chain: B1 chain with C3A, K40C
modifications: NEM on Cys 40
notes: His-tagged
B22: P54AR4-83v2 G73C, NEM conjugate (designed binder)
chain: B1 chain with C3A, G73C
modifications: NEM on Cys 73
notes: His-tagged
B23: P54AR4-83v2 H75C, NEM conjugate (designed binder)
chain: B1 chain with C3A, H75C
modifications: NEM on Cys 75
notes: His-tagged
B24: P54AR4-83v2 A90C, NEM conjugate (designed binder)
chain: B1 chain with C3A, A90C
modifications: NEM on Cys 90
notes: His-tagged
B25: P54AR4-83v2 G51C, NEM conjugate (designed binder)
chain: B1 chain with C3A, G51C
modifications: NEM on Cys 51
notes: His-tagged
B26: P54AR4-83v2 E53C, NEM conjugate (designed binder)
chain: B1 chain with C3A, E53C
modifications: NEM on Cys 53
notes: His-tagged
B27: P54AR4-83v2 E11C, NEM conjugate (designed binder)
chain: B1 chain with C3A, E11C
modifications: NEM on Cys 11
notes: His-tagged
B28: P54AR4-83v2 I91C, NEM conjugate (designed binder)
chain: B1 chain with C3A, I91C
modifications: NEM on Cys 91
notes: His-tagged; also called 191C
B29: P54AR4-83v2 E39C, NEM conjugate (designed binder)
chain: B1 chain with C3A, E39C
modifications: NEM on Cys 39
notes: His-tagged

Key:
[1] = target: T1, EGFR (form in the assay not stated) (human, UniProt P00533 25-645, limits assumed); experiment: ELISA, NEM conjugate 10 nM
[2] = target: T1, EGFR (form in the assay not stated); experiment: ELISA, NEM conjugate 100 nM
[3] = target: T1, EGFR (form in the assay not stated); experiment: ELISA, NEM conjugate 500 nM

Binder	binding ratio vs parent P54AR4-83v2 [1] [ratio]	binding ratio vs parent P54AR4-83v2 [2] [ratio]	binding ratio vs parent P54AR4-83v2 [3] [ratio]
B1	0.34	0.88	0.82
B2	0.04	0.34	0.62
B3	0.84	0.99	0.9
B4	0.61	1.06	0.92
B5	1.11	1.27	1.15
B6	0	0.07	0.23
B7	0.64	0.73	0.61
B8	0.19	0.02	0.29
B9	0.98	1.09	0.97
B10	0.68	1.04	0.92
B11	0.9	0.99	0.93
B12	1.28	1.42	1.36
B13	0.7	0.97	0.91
B14	0.89	1.07	0.93
B15	0.91	1.04	0.93
B16	0.84	1.02	0.9
B17	0.35	1	0.9
B18	0.86	1.02	0.93
B19	0.95	1.06	0.95
B20	0.02	0.2	0.4
B21	0.88	0.95	0.86
B22	0	0.02	0.21
B23	0.07	0.19	0.25
B24	0.94	1.05	1.01
B25	0.88	1.03	0.92
B26	0.91	1.02	0.91
B27	0.9	1.08	0.95
B28	0.9	1.01	1
B29	0.9	1	0.9
